B1: PBXIP1 (parent)
chain: LQQLRARLQGLEADCVRGPDGVCL
B2: FCHSD1 (parent)
chain: LEAAEVILEHAHRGEQTTSQVSWE

Variants of: B1
Assay: protein stability index of a GFP-peptide fusion (GPS, HEK-293T) (PSI 1-6); higher = more stable
Conditions: c terminus: a fixed tail appended
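Further: lentivirally expressed fusions sorted by FACS into six bins by GFP to DsRed ratio, PSI derived from sequencing read proportions per bin multiplied by bin number.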

Protein stability index, by site and new letter:
L4: H 3.26 | I 1.49 | M 2.03 | N 3.83 | P 2.42 | Q 3.48 | R 3.19 | S 3.01 | T 3.18 | V 1.81 | W 2.65
R5: C 1.24 | D 4.08 | E 3.78 | F 2.14 | G 2.78 | H 2.61 | I 2.42 | K 2.2 | L 1.17 | M 1.84 | N 2.87 | P 2.98 | S 2.76 | T 3.04 | Y 2.34
A6: D 2 | F 1.95 | G 2.84 | H 2.47 | I 1.43 | M 1.36 | N 2.19 | P 3.61 | Q 1.54 | R 1.32 | S 3.27 | T 3.11 | V 2.4 | W 3.19 | Y 2.03
R7: A 2.12 | D 3.89 | E 4.03 | F 2.09 | G 3.55 | H 2.91 | I 2.57 | K 2.28 | L 3.52 | N 2.93 | P 2.59 | Q 3.33 | S 2.72 | T 2.52 | V 2.03 | W 2.28 | Y 1.73
L8: D 3.58 | E 5.35 | F 2.29 | I 2.84 | K 3.57 | M 2.05 | N 3.94 | P 3.56 | Q 3.36 | T 3.43 | V 1.99 | W 2.24
Q9: A 1.43 | C 3.05 | D 2.86 | E 1.6 | G 2.28 | H 2.42 | K 1.87 | P 2.8 | R 1.17 | S 1.37 | T 1.04 | W 1.86
G10: A 1.24 | D 2.35 | E 2.64 | I 1.65 | M 2.02 | Q 2.53 | W 2.15
L11: A 2.46 | D 4.28 | E 3.75 | F 2.25 | G 4.24 | H 2.41 | I 1.93 | K 3.69 | M 2.75 | N 3.09 | P 2.07 | Q 3.97 | R 2.88 | S 3.09 | T 3.01 | W 2.78 | Y 2.75
E12: D 2.23 | H 1.35 | P 1.8 | Q 2.26 | T 2.02 | V 2.79 | Y 2.73
A13: C 2.08 | E 2.97 | G 1.87 | H 1.68 | I 1.34 | K 2.52 | L 1.45 | M 2.79 | N 2.56 | Q 3.12 | S 2.29 | V 2.35 | W 1.01 | Y 2.01
D14: E 2.24 | G 1.15 | I 2.73 | M 3.39 | N 1.75 | P 2.1 | Q 2.21 | R 2.93 | W 1.32 | Y 1.14
C15: A 2.6 | D 2.65 | G 1.96 | H 1.81 | I 1.87 | K 2.29 | L 2.5 | N 1.95 | Q 1.99 | S 2.16 | T 2.18 | W 2 | Y 2.13
V16: C 1.78 | D 2.87 | E 3.21 | F 2.28 | H 1.74 | I 2.38 | L 1.59 | M 1.81 | N 2.62 | P 1.64 | Q 2.95 | S 1.84 | T 2.51 | W 1.46 | Y 2.57
R17: C 2.04 | E 1.86 | F 2.12 | G 2.55 | H 2.93 | I 1.82 | K 1.86 | L 1.98 | M 1.79 | N 3.03 | P 3.52 | Q 3.04 | T 3.19 | V 2.2 | W 1.81 | Y 2.47
G18: A 2.97 | C 2.23 | D 3.74 | F 1.47 | H 2.39 | I 1.87 | K 2.27 | M 2.32 | P 1.78 | Q 2.9 | V 3.65 | W 2.54 | Y 1.93
P19: D 2.23 | F 1.92 | H 2.62 | I 2.58 | K 1.98 | N 1 | R 1.41 | S 1 | T 2.12 | V 2.65 | W 1.5 | Y 2.13
D20: A 2.03 | E 1.89 | G 2.45 | H 1.6 | I 1.9 | K 2.08 | M 1.53 | P 1.5 | Q 3.03 | R 2.54 | T 2.12 | V 1.8 | W 1.84 | Y 1.26
G21: A 1.28 | I 1.75 | K 3.18 | N 2.69 | Q 3.34 | R 2.56 | S 3.94 | T 1.99 | W 2.07 | Y 1.28
V22: A 2.03 | C 1.84 | F 1.34 | G 1.78 | I 1.96 | K 2.39 | L 1.46 | M 2.13 | Q 2.83 | R 3.41 | S 3.23 | T 2.57 | Y 1.52
C23: A 2.2 | E 2.98 | H 2.66 | I 2.78 | K 2.03 | L 2.48 | M 2.23 | N 1.65 | P 2.52 | Q 2.39 | S 1.96 | V 1.74 | W 3.01 | Y 2.29
L24: D 3.08 | H 2.97 | I 1.94 | N 3.04 | P 2.79 | Q 3.1 | R 2.65 | S 2.89 | T 1.74 | V 1.79 | W 2.15 | Y 2.34

Variants of: B2
Assay: as above
Conditions: c terminus: a fixed tail appended

Protein stability index of substitutions, site by site:
L1: C 4.8 | D 4.42 | E 4.55 | F 3.33 | H 4.88 | I 4.12 | K 4.67 | M 4.58 | N 4.61 | P 5.11 | Q 4.92 | R 4.52 | S 4 | T 5.34 | V 4.7 | W 3.35 | Y 5
E2: A 3.94 | C 1.85 | D 4.31 | F 2.21 | H 4.72 | I 2.5 | K 3.93 | M 3.79 | N 4.42 | P 4.32 | Q 4.41 | R 3.84 | S 3.7 | T 3.6
A3: C 4.92 | D 5.14 | E 4.74 | G 4.53 | H 3.86 | I 2.88 | K 4.57 | L 3.71 | M 3.65 | N 4.43 | Q 4.79 | R 4.41 | S 5.35 | T 4.49 | V 2.89 | Y 3.6
A4: C 4.59 | D 3.59 | E 5.11 | F 2.35 | G 5.06 | H 4.46 | I 2.56 | K 4.24 | L 2.59 | M 2.35 | N 4.52 | P 5.19 | R 3.59 | T 3.82 | V 3.15 | Y 2.48
E5: A 2.84 | C 2.82

From the supplement of paper PMC10567573
